Assay results published in publication doi:10.1101/2023.01.07.523072.

Target: RPN13 pru domain (Arabidopsis thaliana) (UniProt O48726)
Experiment: ITC

Chain of UniProt O48726 (O48726 9-121): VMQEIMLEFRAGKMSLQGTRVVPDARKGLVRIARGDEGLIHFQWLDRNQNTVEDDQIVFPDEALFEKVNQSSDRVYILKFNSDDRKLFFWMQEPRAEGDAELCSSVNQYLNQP

Substance: TTOP UBL domain (from UniProt F4K1H0 1-879) (domain or fragment)
- Kd: 29 µM
- stoichiometry N: 1
